In publication PMC3840377:

Legend:
alpha-thrombin [1] = target: T1, alpha-thrombin (UniProt P00734;P00734 328-363;364-622); test: flow cytometry, sandwich on T27-AR-captured thrombin
alpha-thrombin [2] = target: T1, alpha-thrombin; test: flow cytometry, thrombin capture on CEM cells, T-15-biotin/SA-488 read-out
streptavidin = streptavidin (UniProt P22629 25-183); test: flow cytometry, SA-488 capture on CEM cells
Sequence of streptavidin (P22629 25-183): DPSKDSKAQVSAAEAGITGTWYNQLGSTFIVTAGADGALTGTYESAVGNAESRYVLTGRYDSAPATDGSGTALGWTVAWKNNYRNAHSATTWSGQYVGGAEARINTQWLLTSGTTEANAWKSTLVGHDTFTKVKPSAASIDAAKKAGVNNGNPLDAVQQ

B1: T-15 (ssDNA)
DNA: GGTTGGTGTGGTTGG
- binding result (alpha-thrombin [1]): binds

B2: T27-AR (ssDNA)
DNA: TTTTTTTGTCCGTGGTAGGGCAGGTTGGGGTGAC
modifications: 5' diacyllipid
- binding result (alpha-thrombin [2]): binds

B3: SA-AR (ssDNA)
DNA: TTTTTTTATTGACCGCTGTGTGACGCAACACTCAAT
modifications: 5' diacyllipid
- binding result (streptavidin): binds
